Source: patent US20110244457A1

Tests used:
[1] = target: human IL-8 (human) (UniProt P10145); experiment: homogeneous immuno-SDA with reversed probe RBD-3v3, 0.1 pM IL-8 in binding mixture, 20 pM Ab1-SA-P1 with 100 pM Ab2-P2 (G265-5-LHP-3), 50 nM blocker RDB-3z8
[2] = target: human IL-8 (human) (UniProt P10145); experiment: homogeneous immuno-SDA, 1,000 pM IL-8 in binding mixture, 1 nM Ab1-SA-P1 with 1 nM Ab2-P2 (G265-5-LHP-3) as second proximity member
[3] = target: human IL-8 (human) (UniProt P10145); experiment: homogeneous immuno-SDA with tether oligonucleotide, 100 pM IL-8 in binding mixture, 1 nM Ab1-SA-TO plus RHP-3 with 1 nM Ab2-P2 (G265-5-LHP-3)
[4] = target: human IL-8 (human) (UniProt P10145); experiment: homogeneous immuno-SDA with reversed probe RBD-3v3, 0.5 pM IL-8 in binding mixture, 20 pM Ab1-SA-P1 with 100 pM Ab2-P2 (G265-5-LHP-3), 50 nM blocker RDB-3z8
[5] = target: human IL-8 (human) (UniProt P10145); experiment: homogeneous immuno-SDA, 10 pM IL-8 in binding mixture, 1 nM Ab1-SA-P1 with 1 nM Ab2-P2 (G265-5-LHP-3) as second proximity member; signal needs both antibodies on IL-8
[6] = target: human IL-8 (human) (UniProt P10145); experiment: homogeneous immuno-SDA with reversed probe RBD-3v3, 1.0 pM IL-8 in binding mixture, 20 pM Ab1-SA-P1 with 100 pM Ab2-P2 (G265-5-LHP-3), 50 nM blocker RDB-3z8
[7] = target: human IL-8 (human) (UniProt P10145); experiment: homogeneous immuno-SDA with reversed probe RBD-3v3, 0.25 pM IL-8 in binding mixture, 20 pM Ab1-SA-P1 with 100 pM Ab2-P2 (G265-5-LHP-3), 50 nM blocker RDB-3z8
[8] = target: human IL-8 (human) (UniProt P10145); experiment: homogeneous immuno-SDA, 100 pM IL-8 in binding mixture, 1 nM Ab1-SA-P1 with 1 nM Ab2-P2 (G265-5-LHP-3) as second proximity member
[9] = target: human IL-8 (human) (UniProt P10145); experiment: homogeneous immuno-SDA with tether oligonucleotide, 10 pM IL-8 in binding mixture, 1 nM Ab1-SA-TO plus RHP-3 with 1 nM Ab2-P2 (G265-5-LHP-3)

Chain of human IL-8 (human) (P10145 28-99 limits assumed): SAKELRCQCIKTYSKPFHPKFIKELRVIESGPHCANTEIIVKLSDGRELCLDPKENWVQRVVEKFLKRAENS
Chain of MAb G265-8 (BD Bioscience Pharmingen), directed against human IL-8, covalently coupled to streptavidin (anti-IL-8 IgG-SA conjugate) (P22629 37-163): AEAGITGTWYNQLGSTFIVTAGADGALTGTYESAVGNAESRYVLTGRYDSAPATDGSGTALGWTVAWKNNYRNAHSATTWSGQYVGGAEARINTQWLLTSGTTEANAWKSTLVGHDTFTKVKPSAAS

In the case of “MAb G265-8 (BD Bioscience Pharmingen), directed against human IL-8, covalently coupled to streptavidin (anti-IL-8 IgG-SA conjugate) (from UniProt P22629 37-163) (antibody)”, the Average MOTA (n = 4) [1] is reported as 23100, the Average MOTA (n = 6) [2] is reported as 129000 and the Average MOTA (n = 6) [3] is reported as 32200. The Average MOTA (n = 4) [4] was 118000, the Average MOTA (n = 6) [5] was 3980 and the Average MOTA (n = 4) [6] was 129000. For the same substance, the Average MOTA (n = 4) [7] was 81600, the Average MOTA (n = 6) [8] was 73900 and the Average MOTA (n = 6) [9] was 505.
